In assay [1] the target is Streptomyces coelicolor RNase J (SCO5745) (Streptomyces coelicolor). Nature of the assay: crystal structure; crystals from 27.5% w/v PEG 400, 0.1 M Tris-HCl pH 8.5, 18°C; co-purified RNA bound; space group P4(3)22, two protomers in the asymmetric unit; tetramer by crystallographic 2-fold symmetry.
For assay [2] the target is unchanged. Kind of assay: AUC; analytical ultracentrifugation, data not shown; conditions not given.

Broadly, the stoichiometry N is a count of units in the complex or per binding partner.

Consider “Streptomyces coelicolor RNase J (SCO5745) (enzyme)”, for which the stoichiometry N in assay [1] and in assay [2] was 4 each time.
